These results are taken from US20200339692A1 (JIANGSU HENGRUI MEDICINE, published 2020).

In experiment [1] the target is T1, mouse PD-L1 (Cat. #50010-M08H, Sino Biological) (mouse, UniProt Q9EP73 19-238).
T1 construct: Bought recombinant protein used in the Biacore test
In words: SPR, Biacore X100. As for the experimental part: (§1) According to the method in the manual of human anti-capture kit (Cat. A BR-1008-39, GE), the human anti-capture antibody was covalently coupled to biosensor chip CM5 (Cat. #BR-1000-12, GE) so that a certain amount of human PD-L1 (Cat. #10084-H08H, Sino Biological) monkey PD-L1 (Cat. #90251-C08H, Sino Biological), mouse PD-L1 (Cat. #50010-M08H, Sino Biological) were affinity captured. The affinity of PD-L1 antibody reacting with PD-L1 was measured with Biacore X100, GE instrument.
On the technique in general: In SPR one partner is held on a chip, and binding of the other changes the refractive index at the surface.

Experiment [2] addresses T2, human PD-L1 (Cat. #10084-H08H, Sino Biological) (human, UniProt Q9NZQ7 19-239).
T2 construct: Bought recombinant protein used in the Biacore test; also called hPDL1; hPD-L1
In words: SPR, Biacore X100, 1:1 Langmuir. How it is done: as §1

Experiment [3] concerns the target T3, monkey PD-L1 (Cat. #90251-C08H, Sino Biological) (monkey (cyno), UniProt G7PSE7 19-239).
T3 construct: Bought recombinant protein used in the Biacore test; also called Monkey (cyno) PD-L1; Cyno PDL1
Briefly: SPR, Biacore X100, 1:1 Langmuir. How it is done:
as §1

Experiment [4] concerns the target T2, human PD-L1 (Cat. #10084-H08H, Sino …). In words: SPR, Biacore X100, 1:1 Langmuir. As for the experimental part:
as §1
This is another data set of the same source.

In experiment [5] the target is T3, monkey PD-L1 (Cat. #90251-C08H, Sino …). Briefly: SPR, Biacore X100, 1:1 Langmuir. How it is done:
as §1
The source holds these as a separate data set.

The target in experiment [6] is T4, human PD-L1 (ligand blocking test) (human, UniProt Q9NZQ7 19-238, limits assumed). Briefly: blocking of human PD-L1/PD-1 binding, PD-L1 10 ug/ml; competitor PD-1.
T4 sequence (Q9NZQ7 19-238 limits assumed): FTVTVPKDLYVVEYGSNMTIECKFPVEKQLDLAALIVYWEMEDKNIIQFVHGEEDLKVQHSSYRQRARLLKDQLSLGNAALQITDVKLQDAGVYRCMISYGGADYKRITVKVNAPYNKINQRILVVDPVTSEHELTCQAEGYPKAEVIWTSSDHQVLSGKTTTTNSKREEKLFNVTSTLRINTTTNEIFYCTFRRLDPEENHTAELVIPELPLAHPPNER
Experiment [7] has as its target T4, human PD-L1 (ligand blocking test). In words: blocking of B7-1 binding to human PD-L1, PD-L1 1 ug/ml; competitor B7-1.
Experiment [8] addresses T2, human PD-L1 (Cat. #10084-H08H, Sino …). Briefly: SPR, Biacore X100. As for the experimental part:
as §1

Experiment [9] deals with T3, monkey PD-L1 (Cat. #90251-C08H, Sino …). In words: SPR, Biacore X100. As for the experimental part: as §1

Like-named read-outs stand apart in the source and are kept apart here.

T3 sequence (G7PSE7 entry or part of it C08H C08H): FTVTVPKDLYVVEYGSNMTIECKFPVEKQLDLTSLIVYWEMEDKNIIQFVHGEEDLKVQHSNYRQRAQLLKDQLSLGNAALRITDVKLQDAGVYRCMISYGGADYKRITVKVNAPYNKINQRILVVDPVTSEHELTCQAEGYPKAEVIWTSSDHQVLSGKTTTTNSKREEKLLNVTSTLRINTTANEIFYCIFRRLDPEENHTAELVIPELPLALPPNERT
T2 sequence (Q9NZQ7 19-239 limits assumed): as the sequence (G7PSE7 entry or part of it C08H C08H) above, with T33A, S34A, N62S, Q68R, R82Q, L173F, A185T, I192T, L215H counted along it
T1 sequence (Q9EP73 19-238 limits assumed, stated change not applied): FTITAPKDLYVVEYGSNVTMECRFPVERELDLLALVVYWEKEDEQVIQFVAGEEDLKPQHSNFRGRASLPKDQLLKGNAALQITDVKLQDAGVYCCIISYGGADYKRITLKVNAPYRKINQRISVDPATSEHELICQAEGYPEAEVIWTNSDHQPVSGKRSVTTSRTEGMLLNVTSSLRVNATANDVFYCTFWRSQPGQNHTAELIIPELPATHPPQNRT

B1: HRP00052: 24D5(GF)IgG4(AA)(S228P) (antibody)
heavy: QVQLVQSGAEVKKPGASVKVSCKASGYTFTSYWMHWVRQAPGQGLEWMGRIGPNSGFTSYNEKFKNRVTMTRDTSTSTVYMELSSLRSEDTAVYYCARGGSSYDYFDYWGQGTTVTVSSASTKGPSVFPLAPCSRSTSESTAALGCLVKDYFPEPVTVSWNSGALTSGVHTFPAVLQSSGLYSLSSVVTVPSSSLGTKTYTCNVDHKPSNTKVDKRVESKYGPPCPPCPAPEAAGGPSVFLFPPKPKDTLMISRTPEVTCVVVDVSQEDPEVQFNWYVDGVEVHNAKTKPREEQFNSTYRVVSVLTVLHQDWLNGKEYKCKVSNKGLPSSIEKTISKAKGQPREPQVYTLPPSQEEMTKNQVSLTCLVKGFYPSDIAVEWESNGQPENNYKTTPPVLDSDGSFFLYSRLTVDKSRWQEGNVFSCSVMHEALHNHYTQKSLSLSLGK
light: DIVLTQSPASLAVSPGQRATITCRASESVSIHGTHLMHWYQQKPGQPPKLLIYAASNLESGVPARFSGSGSGTDFTLTINPVEAEDTANYYCQQSFEDPLTFGQGTKLEIKRTVAAPSVFIFPPSDEQLKSGTASVVCLLNNFYPREAKVQWKVDNALQSGNSQESVTEQDSKDSTYSLSSTLTLSKADYEKHKVYACEVTHQGLSSPVTKSFNRGEC
notes: Parent antibody from WO2017084495A1
One may read the Kd as the free concentration of one partner at which half of the binding sites on the other are occupied at equilibrium, for simple one-to-one binding. Usually koff stands for the rate constant with which the complex falls apart. What is called kon is a measure of how fast the partners come together. For orientation: IC50 means the concentration that inhibits the measured activity by half. B1: in experiment [1], the binding result is on record as “no binding”. The Kd in [2] was 0.0672 nM; in experiment [3], 0.062 nM; in [4], 0.11 nM; in experiment [5], 0.114 nM. Moreover, the koff in [2] was 0.000116 s⁻¹; in [3], 9.38e-05 s⁻¹; in experiment [4], 0.000139 s⁻¹; in experiment [5], 0.000143 s⁻¹. For the same molecule, the kon in experiment [2] is 1.73e+06 M⁻¹ s⁻¹; in [3] it was 1.51e+06 M⁻¹ s⁻¹; in experiment [4] it was 1.26e+06 M⁻¹ s⁻¹; in experiment [5], 1.26e+06 M⁻¹ s⁻¹. The IC50 was 0.242 ng/mL in experiment [6] and 1.23 ng/mL in experiment [7].

B2: H21L68 (antibody, human IgG1, kappa, V domains shown)
VH: QVQLVQSGAEVKKPGASVKVSCKASGYTFTDKWMMWVRQAPGQGLEWMGRITPSSGFAMYNEKFKNRVTMTRDTSTSTVYMELSSLRSEDTAVYYCARGGSSYDYFDYWGQGTTVTVSS
VL: DIVLTQSPASLAVSPGQRATITCRASESVSIHGTHLMHWYQQKPGQPPKLLIYVASNVWSGVPARFSGSGSGTDFTLTINPVEAEDTANYYCQQSFEDPLTFGQGTKLEIKR
notes: also called 24D5 H21 and 24D5 L68
As to B2, the binding result in experiment [8] and in experiment [9] was “no binding” in each case.
